Results on 125 sequences are retold here after the supplement of paper PMC9112550, “Optimization of the antimicrobial peptide Bac7 by deep mutational scanning” (BMC Biology, 2022).

The series relates to Escherichia coli TOP10. The series is described as follows: shrunken log2 fold change of peptide-encoding DNA abundance (4.5 h post-induction vs induction); higher = less antimicrobial activity (less host growth inhibition). The conditions noted are these: time post-induction: 4.5 h; library: site-saturation at positions 5, 18, 19, 20.
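Note: peptides expressed intracellularly from a pBAD plasmid library in pooled LB shake-flask culture, induced with 0.3% L-arabinose, DNA abundance read by NGS, three biological replicates, DESeq2 with apeglm shrinkage.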

RRIRDRPPRLPRPRPRPSDCPRP: the “shrunken log2 fold change” value is -0.482.

Consider RRIRWRPPRLPRPRPRPMTNPRP, for which the “shrunken log2 fold change” value was -0.0531.

For the sequence RRIRYRPPRLPRPRPRPEMSPRP, the “shrunken log2 fold change” value is -0.343.

Take RRIRGRPPRLPRPRPRPQFNPRP: the “shrunken log2 fold change” value is -0.163.

As to RRIRVRPPRLPRPRPRPYGQPRP, the “shrunken log2 fold change” value is -0.0728.

In the case of RRIRDRPPRLPRPRPRPMQHPRP, the “shrunken log2 fold change” value was -0.00754.

Consider RRIRPRPPRLPRPRPRPMVMPRP, for which the “shrunken log2 fold change” value is -0.0504.

Take RRIRWRPPRLPRPRPRPGIWPRP: the “shrunken log2 fold change” value was 0.217.

In the case of RRIRDRPPRLPRPRPRPDWYPRP, the “shrunken log2 fold change” value is -0.0602.

Regarding RRIRTRPPRLPRPRPRPKCAPRP, the “shrunken log2 fold change” value came out at 0.909.

RRIRARPPRLPRPRPRPTKDPRP: the “shrunken log2 fold change” value was 0.144.

Turning to RRIRVRPPRLPRPRPRPIIYPRP, the “shrunken log2 fold change” value was -0.475.

Regarding RRIRTRPPRLPRPRPRPAAPPRP, the “shrunken log2 fold change” value worked out at 0.275.

Take RRIRCRPPRLPRPRPRPRYGPRP: the “shrunken log2 fold change” value was -0.499.

Regarding RRIRPRPPRLPRPRPRPQVKPRP, the “shrunken log2 fold change” value is 0.205.

For the sequence RRIRVRPPRLPRPRPRPGFYPRP, the “shrunken log2 fold change” value is -0.345.

As to RRIRFRPPRLPRPRPRPACRPRP, the “shrunken log2 fold change” value was 0.192.

Turning to RRIRRRPPRLPRPRPRPKRWPRP, the “shrunken log2 fold change” value is 0.409.

For RRIRYRPPRLPRPRPRPMMLPRP, the “shrunken log2 fold change” value was -0.00141.

Turning to RRIRARPPRLPRPRPRPRSIPRP, the “shrunken log2 fold change” value was -0.0101.

For RRIRFRPPRLPRPRPRPGEYPRP, the “shrunken log2 fold change” value is -0.114.

For RRIRGRPPRLPRPRPRPGPNPRP, the “shrunken log2 fold change” value was 0.941.

With RRIRSRPPRLPRPRPRPQLDPRP, the “shrunken log2 fold change” value is -0.191.

RRIRNRPPRLPRPRPRPHHAPRP: the “shrunken log2 fold change” value was -0.0601.

Consider RRIRARPPRLPRPRPRPWHQPRP, for which the “shrunken log2 fold change” value turned out to be 0.0524.

Regarding RRIRPRPPRLPRPRPRPQSFPRP, the “shrunken log2 fold change” value amounted to 0.0475.

With RRIRFRPPRLPRPRPRPMKIPRP, the “shrunken log2 fold change” value stood at 0.25.

On to RRIRRRPPRLPRPRPRPHCEPRP, for which the “shrunken log2 fold change” value was -0.169.

RRIRMRPPRLPRPRPRPPFFPRP: the “shrunken log2 fold change” value stood at 0.528.

On to RRIRNRPPRLPRPRPRPDWVPRP, for which the “shrunken log2 fold change” value turned out to be 0.134.

With RRIRNRPPRLPRPRPRPDYCPRP, the “shrunken log2 fold change” value is -0.00677.

On to RRIRRRPPRLPRPRPRPRKPPRP, for which the “shrunken log2 fold change” value stood at 0.153.

For RRIRYRPPRLPRPRPRPHRIPRP, the “shrunken log2 fold change” value is -0.474.

Regarding RRIRKRPPRLPRPRPRPWWQPRP, the “shrunken log2 fold change” value came to 0.0795.

Take RRIRLRPPRLPRPRPRPMWSPRP: the “shrunken log2 fold change” value is -0.0258.

RRIRYRPPRLPRPRPRPDCYPRP: the “shrunken log2 fold change” value is -3.15.

On to RRIRERPPRLPRPRPRPDSNPRP, for which the “shrunken log2 fold change” value is -0.00994.

For RRIRTRPPRLPRPRPRPLATPRP, the “shrunken log2 fold change” value stood at 0.0927.

In the case of RRIRVRPPRLPRPRPRPGTFPRP, the “shrunken log2 fold change” value is -0.867.

For the sequence RRIRTRPPRLPRPRPRPDWAPRP, the “shrunken log2 fold change” value was determined as 0.327.

As to RRIRCRPPRLPRPRPRPAYFPRP, the “shrunken log2 fold change” value was -0.361.

Take RRIRTRPPRLPRPRPRPSPQPRP: the “shrunken log2 fold change” value is -0.133.

RRIRCRPPRLPRPRPRPGPSPRP: the “shrunken log2 fold change” value is 0.17.

For the sequence RRIRMRPPRLPRPRPRPQGLPRP, the “shrunken log2 fold change” value is 0.0389.

As to RRIRGRPPRLPRPRPRPWRFPRP, the “shrunken log2 fold change” value was found to be 0.425.

On to RRIRTRPPRLPRPRPRPMQFPRP, for which the “shrunken log2 fold change” value is -0.0258.

For the sequence RRIRTRPPRLPRPRPRPCNFPRP, the “shrunken log2 fold change” value is -1.39.

Regarding RRIRTRPPRLPRPRPRPWVQPRP, the “shrunken log2 fold change” value is -0.0274.

On to RRIRKRPPRLPRPRPRPDRAPRP, for which the “shrunken log2 fold change” value is 0.115.

For the sequence RRIRFRPPRLPRPRPRPWRVPRP, the “shrunken log2 fold change” value amounted to 0.0748.

As for RRIRYRPPRLPRPRPRPHLMPRP, the “shrunken log2 fold change” value is -0.126.

Turning to RRIRARPPRLPRPRPRPMAAPRP, the “shrunken log2 fold change” value was 3.13.

In the case of RRIRQRPPRLPRPRPRPHYLPRP, the “shrunken log2 fold change” value is -0.0046.

Consider RRIRWRPPRLPRPRPRPRVWPRP, for which the “shrunken log2 fold change” value worked out at 0.646.

In the case of RRIRLRPPRLPRPRPRPYRLPRP, the “shrunken log2 fold change” value was -0.0305.

As for RRIRQRPPRLPRPRPRPPVGPRP, the “shrunken log2 fold change” value was 0.119.

Take RRIRFRPPRLPRPRPRPARPPRP: the “shrunken log2 fold change” value worked out at 0.287.

As to RRIRHRPPRLPRPRPRPLKQPRP, the “shrunken log2 fold change” value was -0.128.

On to RRIRNRPPRLPRPRPRPGSKPRP, for which the “shrunken log2 fold change” value came to 0.00175.

On to RRIRLRPPRLPRPRPRPNEPPRP, for which the “shrunken log2 fold change” value is -0.213.

For RRIRFRPPRLPRPRPRPKHMPRP, the “shrunken log2 fold change” value was -0.52.

Turning to RRIRTRPPRLPRPRPRPVAQPRP, the “shrunken log2 fold change” value worked out at 0.26.

Regarding RRIRVRPPRLPRPRPRPCIPPRP, the “shrunken log2 fold change” value is -0.467.

RRIRVRPPRLPRPRPRPYQMPRP: the “shrunken log2 fold change” value is -0.34.

On to RRIRKRPPRLPRPRPRPFKKPRP, for which the “shrunken log2 fold change” value worked out at 0.00557.

On to RRIRERPPRLPRPRPRPFKTPRP, for which the “shrunken log2 fold change” value was -0.0273.

As to RRIRTRPPRLPRPRPRPDTSPRP, the “shrunken log2 fold change” value is -0.324.

Turning to RRIRTRPPRLPRPRPRPNTKPRP, the “shrunken log2 fold change” value is -0.337.

In the case of RRIRQRPPRLPRPRPRPRWLPRP, the “shrunken log2 fold change” value worked out at 0.453.

Regarding RRIRARPPRLPRPRPRPRSGPRP, the “shrunken log2 fold change” value is 0.537.

On to RRIRPRPPRLPRPRPRPLCRPRP, for which the “shrunken log2 fold change” value worked out at 0.0255.

Consider RRIRFRPPRLPRPRPRPKANPRP, for which the “shrunken log2 fold change” value stood at 0.00613.

Regarding RRIRRRPPRLPRPRPRPRIFPRP, the “shrunken log2 fold change” value was 0.0808.

Take RRIRLRPPRLPRPRPRPIRPPRP: the “shrunken log2 fold change” value is -0.113.

Take RRIRLRPPRLPRPRPRPTTSPRP: the “shrunken log2 fold change” value is -0.0271.

Consider RRIRFRPPRLPRPRPRPERPPRP, for which the “shrunken log2 fold change” value came to 0.415.

With RRIRSRPPRLPRPRPRPTGRPRP, the “shrunken log2 fold change” value was determined as 0.15.

As for RRIRPRPPRLPRPRPRPFKSPRP, the “shrunken log2 fold change” value is -0.222.

Regarding RRIRRRPPRLPRPRPRPPWYPRP, the “shrunken log2 fold change” value came to 0.0413.

With RRIRMRPPRLPRPRPRPWIYPRP, the “shrunken log2 fold change” value is -0.169.

For the sequence RRIRRRPPRLPRPRPRPGILPRP, the “shrunken log2 fold change” value is -0.174.

With RRIRKRPPRLPRPRPRPNWTPRP, the “shrunken log2 fold change” value was -0.129.

In the case of RRIRERPPRLPRPRPRPTRYPRP, the “shrunken log2 fold change” value was -0.154.

As to RRIRLRPPRLPRPRPRPNQCPRP, the “shrunken log2 fold change” value is -0.206.

As to RRIRWRPPRLPRPRPRPFFQPRP, the “shrunken log2 fold change” value turned out to be 0.329.

As to RRIRSRPPRLPRPRPRPMNNPRP, the “shrunken log2 fold change” value was -0.479.

RRIRKRPPRLPRPRPRPKTTPRP: the “shrunken log2 fold change” value amounted to 0.0195.

As for RRIRQRPPRLPRPRPRPSADPRP, the “shrunken log2 fold change” value came to 0.354.

With RRIRLRPPRLPRPRPRPQIGPRP, the “shrunken log2 fold change” value came out at 0.0441.

For the sequence RRIRTRPPRLPRPRPRPKYRPRP, the “shrunken log2 fold change” value was -0.135.

For RRIRFRPPRLPRPRPRPKQWPRP, the “shrunken log2 fold change” value worked out at 0.133.

Regarding RRIRVRPPRLPRPRPRPNLGPRP, the “shrunken log2 fold change” value was -0.185.

For RRIRGRPPRLPRPRPRPMMAPRP, the “shrunken log2 fold change” value was 1.38.

RRIRFRPPRLPRPRPRPEDIPRP: the “shrunken log2 fold change” value was determined as 0.0107.

As for RRIRKRPPRLPRPRPRPDDMPRP, the “shrunken log2 fold change” value amounted to 2.74.

In the case of RRIRARPPRLPRPRPRPMTGPRP, the “shrunken log2 fold change” value amounted to 0.0159.

As for RRIRMRPPRLPRPRPRPRAQPRP, the “shrunken log2 fold change” value was 0.232.

Consider RRIRLRPPRLPRPRPRPAFQPRP, for which the “shrunken log2 fold change” value was found to be 0.108.

RRIRTRPPRLPRPRPRPCCYPRP: the “shrunken log2 fold change” value was -0.43.

On to RRIRCRPPRLPRPRPRPHDPPRP, for which the “shrunken log2 fold change” value amounted to 0.286.

With RRIRCRPPRLPRPRPRPHLTPRP, the “shrunken log2 fold change” value was -0.229.

RRIRRRPPRLPRPRPRPIWVPRP: the “shrunken log2 fold change” value came to 0.222.

RRIRVRPPRLPRPRPRPMNEPRP: the “shrunken log2 fold change” value is -0.111.

Turning to RRIRSRPPRLPRPRPRPCMAPRP, the “shrunken log2 fold change” value is -0.182.

Regarding RRIRSRPPRLPRPRPRPYFKPRP, the “shrunken log2 fold change” value is -0.857.

As for RRIRPRPPRLPRPRPRPCFWPRP, the “shrunken log2 fold change” value worked out at 0.179.

For RRIRERPPRLPRPRPRPRCQPRP, the “shrunken log2 fold change” value is -0.0986.

Consider RRIRHRPPRLPRPRPRPPNLPRP, for which the “shrunken log2 fold change” value stood at 0.189.

For the sequence RRIRRRPPRLPRPRPRPWARPRP, the “shrunken log2 fold change” value was 0.222.

For the sequence RRIRARPPRLPRPRPRPIKMPRP, the “shrunken log2 fold change” value turned out to be 0.0129.

As to RRIRRRPPRLPRPRPRPDHIPRP, the “shrunken log2 fold change” value turned out to be 0.0664.

For RRIRSRPPRLPRPRPRPMFRPRP, the “shrunken log2 fold change” value was -0.338.

Regarding RRIRFRPPRLPRPRPRPFDYPRP, the “shrunken log2 fold change” value is -0.111.

On to RRIRGRPPRLPRPRPRPHMMPRP, for which the “shrunken log2 fold change” value is -0.0708.

In the case of RRIRERPPRLPRPRPRPPAKPRP, the “shrunken log2 fold change” value was found to be 0.176.

As to RRIRARPPRLPRPRPRPERNPRP, the “shrunken log2 fold change” value was 0.848.

For the sequence RRIRMRPPRLPRPRPRPTFPPRP, the “shrunken log2 fold change” value is 0.0878.

With RRIRTRPPRLPRPRPRPKGTPRP, the “shrunken log2 fold change” value is -0.188.

Take RRIRFRPPRLPRPRPRPARIPRP: the “shrunken log2 fold change” value is -0.0549.

As for RRIRMRPPRLPRPRPRPNHLPRP, the “shrunken log2 fold change” value is -0.0575.

Consider RRIRHRPPRLPRPRPRPIKNPRP, for which the “shrunken log2 fold change” value was -0.563.

With RRIRTRPPRLPRPRPRPLVKPRP, the “shrunken log2 fold change” value is -0.0793.

For the sequence RRIRIRPPRLPRPRPRPAQCPRP, the “shrunken log2 fold change” value turned out to be 0.211.

Take RRIRPRPPRLPRPRPRPYVWPRP: the “shrunken log2 fold change” value is -0.365.

Regarding RRIRTRPPRLPRPRPRPHTSPRP, the “shrunken log2 fold change” value was -0.301.
